± gives the uncertainty stated by the source.
Assay: self-splicing fitness, log relative to wild type (ln ratio); higher = more splicing; Tetrahymena group I intron in knt gene, E. coli kanamycin selection, DiMSum; sequences stand for … in CUCUCU…GGAGGGAAAAGUUAUCAGGCAUGCACCUGGUAGCUAGUCUUUAAACCAAUAGAUUGCAUCGGUUUAAAAGGCAAGACCGUCAAAUUGCGGGAAAGGGGUCAACAGCCGUUCAGUACCAAGUCUCAGGGGAAACUUUGAGAUGGCCUUGCAAAGGGUAUGGUAAUAAGCUGACGGACAUGGUCCUAACCACGCAGCCAAGUCCUAAGUCAACAGAUCUUCUGUUGAUAUGGAUGCAGUUCACAGACUAAAUGUCGGUCGGGGAAGAUGUAUUCUUCUCAUAAGAUAUAGUCGGACCUCUCCUUAAUGGGAGCUAGCGGAUGAAGUGAUGCAACACUGGAGCCGCUGGGAACUAAUUUGUAUGCGAAAGUAUAUUGAUUAGUUUUGGAGUACUCGUGGUCG
Summary of the method: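 Colonies from six replicate transformations of E. coli BL21(DE3) were pooled and amplicon-sequenced on an Illumina HiSeq 2500. The library placed an intron with all eight P1ex-region nucleotides randomised inside the knt kanamycin-resistance gene on pET-22b(+), and cells grew overnight at 37°C or 30°C on LB agar with or without 25 μg/mL kanamycin (plus 100 μg/mL carbenicillin, 50 μM IPTG, 0.2% rhamnose). Fitness is the DiMSum error-weighted combination of wild-type-normalised replicate fold changes, kanamycin versus none.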

Sequence | self-splicing fitness (ln) (37 °C) | self-splicing fitness (ln) (30 °C)
UUUAAGCAAUAUUACGCUUA | -3.03 ± 0.33 | –
AGUUAGCAAUAUUACGUCGU | -1.05 ± 0.14 | -2.35 ± 0.14
UCGAAGCAAUAUUACGACGG | -0.892 ± 0.18 | -1.8 ± 0.17
UCACAGCAAUAUUACGUAAG | -1.33 ± 0.1 | -1.98 ± 0.083
CCAAAGCAAUAUUACGGAAC | -2.53 ± 0.36 | –
GAGCAGCAAUAUUACGCACG | -0.692 ± 0.083 | -1.11 ± 0.061
ACAAAGCAAUAUUACGGUUG | -1.89 ± 0.09 | -2.44 ± 0.07
GGAAAGCAAUAUUACGACUG | -0.134 ± 0.19 | -1.93 ± 0.15
AACAAGCAAUAUUACGAGCG | 0.125 ± 0.078 | -0.912 ± 0.057
AAUGAGCAAUAUUACGCUAU | -1 ± 0.16 | -2.84 ± 0.28
AUCUAGCAAUAUUACGUCAG | -2.34 ± 0.2 | -3.18 ± 0.2
ACCUAGCAAUAUUACGUAGA | -2.49 ± 0.21 | -2.73 ± 0.16
ACGAAGCAAUAUUACGUUAC | -1.17 ± 0.16 | -3.77 ± 0.4
CUCCAGCAAUAUUACGACAC | -1.12 ± 0.34 | -2.74 ± 0.33
GGAUAGCAAUAUUACGGAGA | -2.33 ± 0.3 | -2.79 ± 0.26
GGCCAGCAAUAUUACGGGGC | -4.33 ± 0.23 | -5.35 ± 0.32
CAUUAGCAAUAUUACGUUCU | -2.62 ± 0.16 | -2.56 ± 0.15
GACCAGCAAUAUUACGUUCC | -1.76 ± 0.28 | -2.31 ± 0.26
CCGGAGCAAUAUUACGGCGG | -2.15 ± 0.34 | -1.49 ± 0.15
GUGCAGCAAUAUUACGGCUC | -0.129 ± 0.1 | -0.0701 ± 0.085
GCGAAGCAAUAUUACGGUGA | -1.07 ± 0.12 | -2.09 ± 0.11
CUAUAGCAAUAUUACGUGCA | -2.37 ± 0.19 | -3.24 ± 0.18
UUUUAGCAAUAUUACGCGUG | -0.0858 ± 0.096 | -0.683 ± 0.088
GGAUAGCAAUAUUACGUAGA | -1.4 ± 0.21 | -1.01 ± 0.17
AGAAAGCAAUAUUACGACGA | 0.0397 ± 0.12 | -0.322 ± 0.13

Sequence | self-splicing fitness (ln) (37 °C) | self-splicing fitness (ln) (30 °C)
GACCAGCAAUAUUACGAUUA | -0.446 ± 0.072 | -0.607 ± 0.056
GGGAAGCAAUAUUACGUUCG | 0.00472 ± 0.17 | -0.436 ± 0.11
AGGCAGCAAUAUUACGCACC | -0.0601 ± 0.15 | -0.268 ± 0.1
CACAAGCAAUAUUACGGUCG | 0.219 ± 0.064 | 0.139 ± 0.054
CAUCAGCAAUAUUACGCACA | -1.21 ± 0.11 | -0.992 ± 0.098
UGAUAGCAAUAUUACGCAUA | -0.977 ± 0.16 | -2.13 ± 0.19
GGGCAGCAAUAUUACGUGAA | -0.507 ± 0.083 | -0.864 ± 0.079
UGUGAGCAAUAUUACGCACG | -1.8 ± 0.21 | -1.47 ± 0.21
UGAGAGCAAUAUUACGUAUA | -1.66 ± 0.35 | -3.03 ± 0.42
GUUCAGCAAUAUUACGCUCA | -0.298 ± 0.13 | -0.457 ± 0.11
GAGGAGCAAUAUUACGCAGA | -2.86 ± 0.32 | -3.91 ± 0.34
CCGAAGCAAUAUUACGUGGA | -2.47 ± 0.17 | -3.71 ± 0.29
GGAGAGCAAUAUUACGCGUA | -1.42 ± 0.27 | -2.02 ± 0.37
UUCGAGCAAUAUUACGUAAU | -1.9 ± 0.36 | -2.06 ± 0.26
AAAGAGCAAUAUUACGCGAC | -0.998 ± 0.14 | -2.55 ± 0.2
UGAGAGCAAUAUUACGCCGU | – | -3.58 ± 0.47
GUUGAGCAAUAUUACGCCGC | -2.15 ± 0.5 | -3.06 ± 0.44
GGUGAGCAAUAUUACGGAGG | – | -1.6 ± 0.27
CCAAAGCAAUAUUACGAGCC | -2.07 ± 0.19 | -3.2 ± 0.21
AGACAGCAAUAUUACGAAUA | -1.62 ± 0.19 | -2.38 ± 0.24
AUUGAGCAAUAUUACGCGGA | -2.2 ± 0.14 | -4.15 ± 0.35
AAGCAGCAAUAUUACGCUCG | 0.286 ± 0.14 | -1.67 ± 0.15
UGACAGCAAUAUUACGGCUC | -0.546 ± 0.17 | -1.37 ± 0.16
CGUUAGCAAUAUUACGUAUU | -2.64 ± 0.19 | -3.02 ± 0.18
CAGCAGCAAUAUUACGGUCC | -1.63 ± 0.2 | -3.63 ± 0.22

Sequence | self-splicing fitness (ln) (37 °C) | self-splicing fitness (ln) (30 °C)
GUACAGCAAUAUUACGUCCU | -0.91 ± 0.11 | -1.4 ± 0.12
UCUCAGCAAUAUUACGUUAG | -2.34 ± 0.27 | -3.98 ± 0.4
UCGGAGCAAUAUUACGUCAU | -2.37 ± 0.25 | –
ACAUAGCAAUAUUACGAAUU | -1.26 ± 0.14 | -3.3 ± 0.2
ACUGAGCAAUAUUACGUCAC | -2.75 ± 0.21 | -3.38 ± 0.17
UCCGAGCAAUAUUACGCUGU | -0.655 ± 0.16 | -3.1 ± 0.19
UGGUAGCAAUAUUACGCGUG | 0.251 ± 0.1 | -0.581 ± 0.087
CCGCAGCAAUAUUACGUCAA | -3.04 ± 0.27 | -4.05 ± 0.33
AUCCAGCAAUAUUACGAACA | -0.748 ± 0.11 | -0.801 ± 0.087
UACGAGCAAUAUUACGUCUC | -2.56 ± 0.4 | -3.24 ± 0.29
CCCAAGCAAUAUUACGCGCU | -1.91 ± 0.25 | -3.79 ± 0.34
CGAUAGCAAUAUUACGACGC | 0.00994 ± 0.27 | -2.34 ± 0.39
UUUAAGCAAUAUUACGCAAU | -1.55 ± 0.23 | -2.5 ± 0.24
CCGCAGCAAUAUUACGGUUA | -2.26 ± 0.2 | -3.25 ± 0.2
UCAGAGCAAUAUUACGGCUU | -2.19 ± 0.35 | -3.38 ± 0.34
AGGAAGCAAUAUUACGGCGU | -0.118 ± 0.11 | -0.156 ± 0.1
CGAAAGCAAUAUUACGUCCC | -0.0504 ± 0.23 | -0.693 ± 0.14
GGGCAGCAAUAUUACGAGGG | -2.39 ± 0.24 | -3.93 ± 0.34
UGACAGCAAUAUUACGUUUA | -0.556 ± 0.07 | -0.565 ± 0.061
UGACAGCAAUAUUACGAACG | 0.256 ± 0.1 | 0.00619 ± 0.095
CAUCAGCAAUAUUACGCCCG | 0.0609 ± 0.15 | -0.306 ± 0.12
GUUGAGCAAUAUUACGUAGA | -0.549 ± 0.24 | –
CUAGAGCAAUAUUACGUCAU | -2.58 ± 0.18 | -4.42 ± 0.28
GGGGAGCAAUAUUACGAUGU | -1.55 ± 0.35 | -1.64 ± 0.25
GUAUAGCAAUAUUACGCCAG | -1.26 ± 0.29 | -3.17 ± 0.33

Sequence | self-splicing fitness (ln) (37 °C) | self-splicing fitness (ln) (30 °C)
GUUAAGCAAUAUUACGGAAU | -1.39 ± 0.13 | -2.75 ± 0.14
GGGAAGCAAUAUUACGACCU | – | -2.31 ± 0.27
CCCUAGCAAUAUUACGCCUA | -2.48 ± 0.34 | –
GAUCAGCAAUAUUACGUCGG | -2.39 ± 0.2 | -4.18 ± 0.3
CCAGAGCAAUAUUACGCCGA | -2.65 ± 0.44 | -2.35 ± 0.28
GCUCAGCAAUAUUACGCGUA | -0.265 ± 0.079 | -0.217 ± 0.067
GGCUAGCAAUAUUACGCAGG | -1.81 ± 0.19 | -3.5 ± 0.28
GUACAGCAAUAUUACGUGCU | -3.14 ± 0.24 | -3.17 ± 0.18
AGGGAGCAAUAUUACGAAUG | -2.38 ± 0.39 | -3.27 ± 0.3
AUAGAGCAAUAUUACGCCCU | -0.622 ± 0.37 | -0.756 ± 0.19
GUUCAGCAAUAUUACGAUCA | -0.536 ± 0.14 | -1.81 ± 0.19
GUUUAGCAAUAUUACGCCAA | -1.58 ± 0.24 | -1.57 ± 0.27
UAUUAGCAAUAUUACGCGAG | -0.0781 ± 0.15 | -2.21 ± 0.2
UAAUAGCAAUAUUACGUACG | -1.16 ± 0.17 | -2.13 ± 0.13
UCCCAGCAAUAUUACGGCGA | -0.335 ± 0.078 | -0.651 ± 0.063
UAUUAGCAAUAUUACGAUUU | -0.438 ± 0.12 | -1.76 ± 0.14
AGCAAGCAAUAUUACGCUGU | -0.265 ± 0.12 | -2.69 ± 0.12
AUUGAGCAAUAUUACGCUGU | – | -1.97 ± 0.25
UCUUAGCAAUAUUACGCAUG | -0.995 ± 0.19 | -1.98 ± 0.18
ACUUAGCAAUAUUACGACUU | -0.156 ± 0.1 | -0.0888 ± 0.085
AUGUAGCAAUAUUACGCCCU | 0.0833 ± 0.098 | 0.267 ± 0.097
UCAAAGCAAUAUUACGUAUC | -2.17 ± 0.19 | -3.73 ± 0.23
CCCUAGCAAUAUUACGUUGG | -2.48 ± 0.2 | -3.97 ± 0.23

Source: the supplement of paper PMC7877785
